These results are taken from article doi:10.1101/2025.02.27.640520.

The test has as its target DeCLIC (Desulfofustis deltaproteobacterium). In words: cryo-EM structure.

As for DeCLIC (natural protein), the stoichiometry N (usually a count of units in the complex or per binding partner) worked out at 5.
